Laboratory results published in patent KR20210063070A (dated 2021).
Substitutions are numbered along the chain they refer to. In names and notes the source's numbering stands. Each block holds one binder with its values, some of them ahead of it.

Key:
[1] = biological target: T1, mouse B7-H3 expressed on the surface of mouse cancer cell lines (CT26, B16F10, TC-1) (mouse, UniProt Q8VE98 29-316); experiment: flow cytometry on CT26, B16F10 and TC-1 cells, 10 ㎍/㎖
T1 construct: whole, on cells; also called 세포 표면 발현 마우스 B7-H3
T1 sequence (looked up): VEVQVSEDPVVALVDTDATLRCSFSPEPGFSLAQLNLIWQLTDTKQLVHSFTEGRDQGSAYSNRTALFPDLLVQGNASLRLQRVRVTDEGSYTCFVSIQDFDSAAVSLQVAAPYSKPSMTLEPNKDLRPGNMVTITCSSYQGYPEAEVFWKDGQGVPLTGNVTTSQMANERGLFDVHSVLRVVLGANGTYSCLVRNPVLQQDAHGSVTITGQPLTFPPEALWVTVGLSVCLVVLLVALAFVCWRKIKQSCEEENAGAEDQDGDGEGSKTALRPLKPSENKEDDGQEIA

[2] = biological target: T2, human B7-H3 expressed on the surface of human cancer cell lines (human, UniProt Q5ZPR3 29-534); experiment: flow cytometry on human cancer cell lines that express B7-H3
T2 construct: whole, on cells; also called 세포 표면 발현 B7-H3; CD276
T2 sequence (looked up): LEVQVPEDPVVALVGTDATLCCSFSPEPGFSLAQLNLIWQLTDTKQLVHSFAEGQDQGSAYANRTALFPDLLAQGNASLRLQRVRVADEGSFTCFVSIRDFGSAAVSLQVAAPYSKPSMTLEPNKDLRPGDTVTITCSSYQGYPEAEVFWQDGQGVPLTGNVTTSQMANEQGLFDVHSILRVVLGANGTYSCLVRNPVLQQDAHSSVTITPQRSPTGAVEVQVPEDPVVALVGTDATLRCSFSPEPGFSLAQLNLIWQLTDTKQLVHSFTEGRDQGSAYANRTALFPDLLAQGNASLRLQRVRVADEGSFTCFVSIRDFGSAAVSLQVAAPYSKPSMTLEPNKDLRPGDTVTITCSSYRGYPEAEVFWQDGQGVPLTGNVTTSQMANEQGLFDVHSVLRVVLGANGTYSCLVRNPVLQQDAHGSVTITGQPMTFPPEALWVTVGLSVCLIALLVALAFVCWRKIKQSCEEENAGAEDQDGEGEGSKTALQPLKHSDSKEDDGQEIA

[3] = biological target: T3, recombinant mouse B7-H3 protein with C-terminal His tag (Sino Biological, 50973-M08H) (mouse, UniProt Q8VE98 29-244); experiment: ELISA, IgG on coated recombinant mouse B7-H3-His
T3 construct: Bought; also called 마우스 B7-H3
T3 sequence (looked up): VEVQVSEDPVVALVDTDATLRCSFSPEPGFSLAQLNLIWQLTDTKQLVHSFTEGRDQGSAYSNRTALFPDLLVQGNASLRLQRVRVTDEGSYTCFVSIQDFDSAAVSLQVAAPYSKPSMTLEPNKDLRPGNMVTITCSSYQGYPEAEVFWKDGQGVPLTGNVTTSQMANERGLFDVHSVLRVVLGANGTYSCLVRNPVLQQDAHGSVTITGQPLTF

- binding result [1]: binds
- binding result [2]: binds
- binding result [3]: binds
B2: anti-B7-H3 antibody F6V (full IgG form) (antibody, V domains shown)
VH: EVQLLESGGGLVQPGGSLRLSCAASGFTFSDYAMSWVRQAPGKGLEWVSGISPGGSNTYYADSVKGRFTISRDNSKNTLYLQMNSLRAEDTAVYYCAKDAWIARLLLFDYWGQGTLVTVSS
VL: QSVLTQPPSASGTPGQRVTISCSGSSSNIGSNAVTWYQQLPGTAPKLLIYYNNKRPSGVPDRFSGSKSGTSASLAISGLRSEDEADYYCGTWDDSLSGYVFGGGTKLTVLG

- binding result [1]: binds
- binding result [2]: binds
- binding result [3]: binds
B5: anti-B7-H3 antibody 10F11 (full IgG form) (antibody, V domains shown)
VH: EVQLLESGGGLVQPGGSLRLSCAASGFTFSSYGMSWVRQAPGKGLEWVSGIYSGGSSKYYADSVKGRFTISRDNSKNTLYLQMNSLRAEDTAVYYCAKNRLRFDYWGQGTLVTVSS
VL: B2 VL with S23T, A33S, Y51S, N52D, N53S, K54H, D94A, S97N, G98A

More lines, now with the values behind:

B1: anti-B7-H3 antibody B5 (full IgG form) (antibody, V domains shown)
VH: EVQLLESGGGLVQPGGSLRLSCAASGFTFSDYAMSWVRQAPGKGLEWVSSISSGSGSIYYADSVKGRFTISRDNSKNTLYLQMNSLRAEDTAVYYCAKNLIPLDYWGQGTLVTVSS
VL: B2 VL with T35S, N53S, K54H, T91S, D94A, S97N, G98A
- binding result [1]: binds
- binding result [2]: binds
- binding result [3]: binds

B3: anti-B7-H3 antibody C4I (full IgG form) (antibody, V domains shown)
VH: B1 VH with D31G, A33Y, S50L, S53P, G54S, N99G, I101T, P102K, L103F
VL: B2 VL with S23T, A33D, T35S, Y51A, N53S, K54H, T91S
- binding result [1]: binds
- binding result [2]: binds
- binding result [3]: binds

B4: anti-B7-H3 antibody D8G (full IgG form) (antibody, V domains shown)
VH: B5 VH with G33S, G54D, S57N, K58T, N99M, R100L, L101H
VL: B2 VL with A33S, Y51A, N52D, N53S, K54Q, D94S, S97N, G98A
- binding result [1]: binds
- binding result [2]: binds
- binding result [3]: binds
